Residue numbers refer to the chain shown, from its start. Where two headings read alike, the source gives them in different places.
T1: RacA C-domain (Bacillus subtilis, UniProt P45870 71-184)
T1 sequence: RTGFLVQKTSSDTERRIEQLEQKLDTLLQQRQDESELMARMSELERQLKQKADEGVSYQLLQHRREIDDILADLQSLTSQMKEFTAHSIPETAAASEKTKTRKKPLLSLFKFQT

T2: RacA FL (Bacillus subtilis, UniProt P45870 1-184)
T2 sequence: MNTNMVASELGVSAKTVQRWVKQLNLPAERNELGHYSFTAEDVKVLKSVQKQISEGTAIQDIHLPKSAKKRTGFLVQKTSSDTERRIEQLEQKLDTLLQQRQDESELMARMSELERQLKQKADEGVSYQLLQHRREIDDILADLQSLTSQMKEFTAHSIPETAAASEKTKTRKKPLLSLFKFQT

T3: RacA DBD K15A (Bacillus subtilis, UniProt P45870 1-70, K15A)
T3 sequence: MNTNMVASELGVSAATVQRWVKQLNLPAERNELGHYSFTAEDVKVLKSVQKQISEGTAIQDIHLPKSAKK

T4: RacA DBD (Bacillus subtilis, UniProt P45870 1-70)
T4 sequence: T3 sequence with A15K

T5: RacA DBD R30A (Bacillus subtilis, UniProt P45870 1-70, R30A)
T5 sequence: T3 sequence with A15K, R30A

T6: RacA from FL crystals (proteolyzed) (Bacillus subtilis, UniProt P45870 1-64)
T6 sequence: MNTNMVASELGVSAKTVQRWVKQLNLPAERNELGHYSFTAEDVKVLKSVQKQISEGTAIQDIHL

B1: 14mer ram centromere site (FP) (dsDNA)
DNA 1: TGACGCCGGCGTCA
DNA 2: TGACGCCGGCGTCA
B2: 14mer ram site, 5-bromouracil (dsDNA)
DNA 1: TGACGCCGGCGTCA
DNA 2: TGACGCCGGCGTCA
modifications: thymines replaced with 5-bromouracil
B3: RacA C-terminal region, RacA(71-184) (domain or fragment, B. subtilis, UniProt P45870 71-184, looked up)
chain: T1 sequence
B4: DivIVA C-terminal domain, DivIVA(66-164) (domain or fragment, B. subtilis, UniProt P71021 66-164, looked up)
chain: TLNKSILVAQEAAEDVKRNSQKEAKLIVREAEKNADRIINESLSKSRKIAMEIEELKKQSKVFRTRFQMLIEAQLDLLKNDDWDHLLEYEVDAVFEEKE

Key:
RacA C-domain = molecular target: T1, RacA C-domain; assay: fluorescence polarization
RacA FL = molecular target: T2, RacA FL; assay: fluorescence polarization
RacA DBD K15A = molecular target: T3, RacA DBD K15A; assay: fluorescence polarization
RacA DBD = molecular target: T4, RacA DBD; assay: fluorescence polarization
RacA DBD R30A = molecular target: T5, RacA DBD R30A; assay: fluorescence polarization
[1] = molecular target: T6, RacA from FL crystals (proteolyzed); assay: X-ray crystallography
[2] = molecular target: B4; assay: ITC
[3] = molecular target: B3; assay: ITC
[4] = molecular target: B3; assay: ITC; remark: listed apart in the source

Binder: B1
- binding result (RacA C-domain): no binding
- Kd (RacA FL): 0.0584 ± 0.0003 µM
- Kd (RacA DBD K15A): ~50 µM
- Kd (RacA DBD): 9.2 ± 4 µM
- Kd (RacA DBD R30A): ~50 µM

Binder: B2
- binding result [1]: binds

Binder: B3
- stoichiometry N [2]: 1

Binder: B4
- Kd [3]: 1.9 µM
- Kd [4]: 1.5 µM
- stoichiometry N [4]: 1
